Test results reported in patent US20040086521A1, “Method for the identification of antigenic peptides” (priority 2002, published 2004).

What was measured:
[1] = target: DRB5*0101 (Homo sapiens, UniProt P01903+Q30154); assay: MHC peptide binding studies with synthetic peptide; conditions: MHC peptide binding study
[2] = target: DRB1*0401 (Homo sapiens, UniProt P01903+P01911, A100K/A169T/F76Y/I96L/K127E/L162R/M171V/N62H/P40V/Q125Y/R42H/S133A/S149N/S66Y/V115G/V209L/W38E); assay: MHC peptide binding studies with synthetic peptide; conditions: MHC peptide binding study
[3] = target: DRB1*0101 (Homo sapiens, UniProt P01903+P01911, A100R/D57E/F55L/F60I/F76Y/I96L/L162R/M171V/P40L/Q125E/R42F/V115G/Y59C); assay: MHC peptide binding studies with synthetic peptide; conditions: MHC peptide binding study
[4] = target: HLA-DR allele DRB1*0401 (human); assay: MHC peptide binding study with synthetic peptide
[5] = target: HLA-DR allele DRB1*0101 (human); assay: MHC peptide binding study with synthetic peptide
[6] = target: HLA-DR allele DRB5*0101 (human); assay: MHC peptide binding study with synthetic peptide

Row | Molecule | binding capacity to allele DRB5*0101 [1] | binding capacity to allele DRB1*0401 [2] | binding capacity to allele DRB1*0101 [3] | binding result [4] | binding result [5] | binding result [6]
1 | KPGKTKTIVYQRGILLPQ | confirmed the binding capacity | revealed the same | confirmed the binding capacity |  |  | 
2 | KPGKTKTIVYQRGILLPQ |  |  |  | binds | binds | binds
